Source: patent US20200055939A1 (Genentech, published 2020)
Like-named read-outs stand apart in the source and are kept apart here.

T1: MICA*008 on MEL-JUSO cells (human, UniProt Q29983 24-317)
T1 chain: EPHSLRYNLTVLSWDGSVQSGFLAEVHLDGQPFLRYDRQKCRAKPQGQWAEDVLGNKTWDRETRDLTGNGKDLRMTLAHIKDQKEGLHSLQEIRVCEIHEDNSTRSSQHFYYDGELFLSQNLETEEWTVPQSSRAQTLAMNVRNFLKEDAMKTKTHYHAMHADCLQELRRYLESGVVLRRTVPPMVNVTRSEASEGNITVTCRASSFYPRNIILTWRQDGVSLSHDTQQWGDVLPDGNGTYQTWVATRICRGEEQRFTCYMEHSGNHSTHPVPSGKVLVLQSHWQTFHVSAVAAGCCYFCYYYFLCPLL

T2: MICB*005 on HCC1534 cells (human, UniProt Q29980 23-383)
T2 sequence (looked up): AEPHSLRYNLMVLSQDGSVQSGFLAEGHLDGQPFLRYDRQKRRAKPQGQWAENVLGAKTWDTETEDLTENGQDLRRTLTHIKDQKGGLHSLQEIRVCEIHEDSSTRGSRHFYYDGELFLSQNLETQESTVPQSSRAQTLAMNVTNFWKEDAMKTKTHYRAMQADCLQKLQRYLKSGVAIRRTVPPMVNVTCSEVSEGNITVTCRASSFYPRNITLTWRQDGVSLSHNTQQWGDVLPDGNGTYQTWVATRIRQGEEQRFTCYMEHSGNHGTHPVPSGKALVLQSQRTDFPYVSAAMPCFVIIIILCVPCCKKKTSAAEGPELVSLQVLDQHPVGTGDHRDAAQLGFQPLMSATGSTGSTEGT

T3: MICB005.His (human MICB*005 alpha 3 domain, His tagged) (human)
T3 construct: also called huMICB*005 alpha 3-his
T3 chain: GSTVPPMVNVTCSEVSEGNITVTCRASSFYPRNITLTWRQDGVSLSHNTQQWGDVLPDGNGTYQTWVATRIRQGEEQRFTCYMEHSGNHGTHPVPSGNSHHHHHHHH

T4: MICA004.His (human MICA*004 alpha 3 domain, His tagged) (human)
T4 construct: also called huMICA*004 alpha 3-his
T4 chain: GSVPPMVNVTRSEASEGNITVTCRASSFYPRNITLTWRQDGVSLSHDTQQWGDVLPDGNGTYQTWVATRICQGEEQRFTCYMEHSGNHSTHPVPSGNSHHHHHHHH

T5: MICA008.His (human MICA*008 alpha 3 domain, His tagged) (human)
T5 construct: Also used for FPOP (expressed in CHO); also called huMICA*008 alpha 3-his; MICA*008 a3
T5 chain: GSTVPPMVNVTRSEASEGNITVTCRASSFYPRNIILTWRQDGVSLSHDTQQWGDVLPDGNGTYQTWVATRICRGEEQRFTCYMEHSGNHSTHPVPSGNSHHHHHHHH

T6: MICA002.His (human MICA*002 alpha 3 domain, His tagged) (human)
T6 construct: also called huMICA*002 alpha 3-his
T6 chain: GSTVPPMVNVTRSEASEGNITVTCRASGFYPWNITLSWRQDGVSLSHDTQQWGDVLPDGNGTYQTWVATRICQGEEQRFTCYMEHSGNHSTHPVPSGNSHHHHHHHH

T7: MICA.008.a3.T204-S297.H248N.mIgG2a.Glyco15 (human; mouse, UniProt Q29983 204-297, engineered N-linked glycosylation site H248N)
T7 construct: not shown: murine IgG2a Fc
T7 chain: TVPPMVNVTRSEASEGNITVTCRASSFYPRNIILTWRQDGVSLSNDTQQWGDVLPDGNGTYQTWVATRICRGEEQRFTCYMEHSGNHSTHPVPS

T8: MICA.008.a3.T204-S297.C-terminal insert of N298.G299.S300.mIgG2a.Glyco17 (human; mouse, UniProt Q29983 204-297, engineered N-linked glycosylation site at inserted N298)
T8 construct: not shown: murine IgG2a Fc
T8 chain: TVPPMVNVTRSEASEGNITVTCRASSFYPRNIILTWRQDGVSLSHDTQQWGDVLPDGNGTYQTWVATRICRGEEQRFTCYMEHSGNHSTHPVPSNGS

T9: MICA.008.a3.T204-S297.I236T.mIgG2a.Glyco13 (human; mouse, UniProt Q29983 204-297, engineered N-linked glycosylation site created by I236T)
T9 construct: not shown: murine IgG2a Fc
T9 chain: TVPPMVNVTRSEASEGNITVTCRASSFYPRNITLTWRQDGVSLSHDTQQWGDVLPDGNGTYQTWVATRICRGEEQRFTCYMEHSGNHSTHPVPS

T10: MICA.008.a3.R202-S297.R202N mIgG2a.Glyco11 (human; mouse, UniProt Q29983 203-297, engineered N-linked glycosylation site R202N)
T10 construct: not shown: murine IgG2a Fc
T10 chain: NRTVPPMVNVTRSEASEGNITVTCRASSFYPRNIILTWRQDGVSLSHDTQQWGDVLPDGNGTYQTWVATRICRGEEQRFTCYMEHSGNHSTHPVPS

T11: MICA.008.a3.T204-S297.E215N.mIgG2a.Glyco12 (human; mouse, UniProt Q29983 204-297, engineered N-linked glycosylation site E215N)
T11 construct: not shown: murine IgG2a Fc
T11 chain: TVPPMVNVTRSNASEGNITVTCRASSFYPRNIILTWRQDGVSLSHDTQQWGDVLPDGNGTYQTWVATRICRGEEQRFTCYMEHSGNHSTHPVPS

T12: human MICA*008 alpha 3 domain, untagged (crystallography) (human, UniProt Q29983 204-297)
T12 construct: Made in T. ni cells with EndoH and kifunensine; N-terminal His6 tag removed with thrombin; also called MICA*008 α3 domain
T12 chain: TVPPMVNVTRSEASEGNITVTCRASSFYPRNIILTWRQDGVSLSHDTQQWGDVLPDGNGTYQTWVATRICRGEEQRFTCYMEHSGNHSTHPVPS

T13: human MICA*008 C273S alpha 3 domain, untagged (crystallography) (human, UniProt Q29983 204-297)
T13 construct: C273S removes the unpaired cysteine; made as the wild-type alpha 3 domain; also called MICA*008 C273S α3 domain
T13 chain: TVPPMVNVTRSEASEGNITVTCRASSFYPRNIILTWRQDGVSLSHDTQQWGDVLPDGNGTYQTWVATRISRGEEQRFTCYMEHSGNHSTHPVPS

T14: MICA.008.a3.T204-S297.G243N.mIgG2a.Glyco14 (human; mouse, UniProt Q29983 204-297, engineered N-linked glycosylation site G243N)
T14 construct: not shown: murine IgG2a Fc
T14 chain: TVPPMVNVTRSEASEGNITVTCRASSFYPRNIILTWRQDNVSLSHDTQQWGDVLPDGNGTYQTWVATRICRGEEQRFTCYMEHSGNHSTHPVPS


How the values were obtained:
[1] = target: T15, MICA*004 on HCC1534 cells (human, UniProt Q29983 24-383); experiment: cell-based or functional assay
[2] = target: T1, MICA*008 on MEL-JUSO cells; experiment: cell-based or functional assay
[3] = target: T2, MICB*005 on HCC1534 cells; experiment: cell-based or functional assay
[4] = target: T3, MICB005.His (human MICB*005 alpha 3 …); experiment: SPR, antibody captured;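 also: SPR with antibody held by surface-bound anti-Fc while His-tagged alpha three domains flow over, Kd derived by fitting a one-to-one binding model to sensograms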
Method: (§1) The binding kinetics of the anti-MICA/B antibodies were measured using surface plasmon resonance (SPR) on a Biacore T200 instrument (GE Healthcare). Anti-murine Fc or anti-human Fc (GE Healthcare) was immobilized on a CM5 sensor chip via amine-based coupling using manufacturer provided protocol. Anti-MICA/B antibody was captured by the anti- Fc and the MICA/B alleles were passed over. Antibody binding was measured to human MICA 002, 004, 008 and MICB 005 alpha 3 domains (His tagged, in-house). Sensograms for binding of MICA/B were recorded using an injection time of 2-3 minutes with a flow rate of 30 ml/min, at a temperature of 25° C., and with a running buffer of 10mM HEPES, pH 7.4, 150 mM NaCl, and 0.005% Tween 20. After injection, disassociation of the alpha 3 domain from the antibody was monitored for 10 minutes in running buffer. The surface was regenerated between binding cycles with a 60 ul injection of 10 mM Glycine HCl pH 1.7. […] The data was analyzed using a 1:1 binding model. Sensograms of MICA alleles binding to captured anti-MICA antibody were used to calculate the dissociation constant (Kd).

[5] = target: T4, MICA004.His (human MICA*004 alpha 3 …); experiment: SPR, antibody captured;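 also: SPR with antibody held by surface-bound anti-Fc while His-tagged alpha three domains flow over, Kd derived by fitting a one-to-one binding model to sensograms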
Method: as §1

[6] = target: T5, MICA008.His (human MICA*008 alpha 3 …); experiment: SPR, antibody captured;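 also: SPR with antibody held by surface-bound anti-Fc while His-tagged alpha three domains flow over, Kd derived by fitting a one-to-one binding model to sensograms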
Method: as §1

[7] = target: T6, MICA002.His (human MICA*002 alpha 3 …); experiment: SPR, antibody captured;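 also: SPR with antibody held by surface-bound anti-Fc while His-tagged alpha three domains flow over, Kd derived by fitting a one-to-one binding model to sensograms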
Method: as §1

[8] = target: T7, MICA.008.a3.T204-S297.H248N.mIgG2a.Glyco …; experiment: ELISA, coated variant;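 also: ELISA with plates coated at 2 ug/ml with MICA*008 alpha 3 glycosylation variants as murine IgG2a Fc fusions, antibody binding detected by HRP anti-human IgG Fc and TMB absorbance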
Method: (§2) Hybridoma derived clones binding to all four MICA/B alleles alpha 3 domains were tested by ELISA for binding to the MICA*008 alpha 3 glycosylation variants fused to murine IgG2a Fc fusion. Nunc maxisorp plates were coated with 2 ug/ml of glycosylation variants as previously described. Cloned and recombinantly expressed hybridoma monoclonal antibodies were added to the plates after blocking with a 1X PBS buffer containing 0.5% BSA and 0.05% Tween 20. After incubation, plates were washed multiple times with wash buffer (1X PBS containing 0.05% Tween 20) and secondary antibody (goat anti-human IgG Fc conjugated to HRP) was added. Plates were then washed multiple times with wash buffer again before adding either BioFX TMB Microwell 1 Component Peroxidase or tetramethylbenzidine (TMB) substrate (KPL; Gaithersburg, Md.). After several minutes of incubation, the reaction was stopped with BioFX stop solution or 1 N solution of HCl, respectively. Plates were read on a Spectra MAX 340 plate reader at either 630 or 450 nm respectively (Molecular Devices; Sunnyvale, Calif.).

[9] = target: T8, MICA.008.a3.T204-S297.C-terminal insert …; experiment: ELISA, coated variant;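 also: ELISA with plates coated at 2 ug/ml with MICA*008 alpha 3 glycosylation variants as murine IgG2a Fc fusions, antibody binding detected by HRP anti-human IgG Fc and TMB absorbance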
Method: as §2

[10] = target: T9, MICA.008.a3.T204-S297.I236T.mIgG2a.Glyco …; experiment: ELISA, coated variant;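 also: ELISA with plates coated at 2 ug/ml with MICA*008 alpha 3 glycosylation variants as murine IgG2a Fc fusions, antibody binding detected by HRP anti-human IgG Fc and TMB absorbance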
Method: as §2

[11] = target: T10, MICA.008.a3.R202-S297.R202N …; experiment: ELISA, coated variant;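 also: ELISA with plates coated at 2 ug/ml with MICA*008 alpha 3 glycosylation variants as murine IgG2a Fc fusions, antibody binding detected by HRP anti-human IgG Fc and TMB absorbance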
Method: as §2

[12] = target: T11, MICA.008.a3.T204-S297.E215N.mIgG2a.Glyco …; experiment: ELISA, coated variant
Method: as §2

[13] = target: T15, MICA*004 on HCC1534 cells; experiment: cell-based or functional assay; remark: listed apart in the source
[14] = target: T1, MICA*008 on MEL-JUSO cells; experiment: cell-based or functional assay
[15] = target: T2, MICB*005 on HCC1534 cells; experiment: cell-based or functional assay; remark: listed apart in the source
[16] = target: MICA*002 on cells (PANC-1; B16-MICA002) (human, UniProt Q29983 24-383); experiment: cell-based or functional assay
[17] = target: T15, MICA*004 on HCC1534 cells; experiment: cell-based or functional assay; remark: listed apart in the source
[18] = target: T1, MICA*008 on MEL-JUSO cells; experiment: cell-based or functional assay
[19] = target: T2, MICB*005 on HCC1534 cells; experiment: cell-based or functional assay; remark: listed apart in the source
[20] = target: T16, MILL1-MICA chimera.murine IgG2a Fc fusion (mouse MILL1 with grafted human MICA*008 …); experiment: ELISA, coated chimera
T16 construct: MICA*008 residues around NGTYQT on the 'back' and in the beta2 microglobulin interface grafted onto murine MILL1; also called MILL1-MICA*008 chimera

[21] = target: T12, human MICA*008 alpha 3 domain, untagged …; experiment: complex purified by size exclusion, X-ray structure
Method: (§3) Fab-MICA*008 complexes were formed from a two-fold molar excess of the MICA*008 α3 domain incubated at 4° C. overnight with the various Fabs. […] Complexes were purified from the excess MICA*008 α3 domain by size-exclusion chromatography using a HiLoad Superdex 75 pg column (GE Healthcare) in 25 mM Tris, pH 7.5, 150 mM NaCl. Fractions containing the complex were pooled and concentrated to 20 mg/mL for crystallization screening trials.

[22] = target: T13, human MICA*008 C273S alpha 3 domain, …; experiment: as above
Method: as §3

[23] = target: T5, MICA008.His (human MICA*008 alpha 3 …); experiment: ELISA, coated antigen
[24] = target: T14, MICA.008.a3.T204-S297.G243N.mIgG2a.Glyco …; experiment: ELISA, coated variant
Method: as §2

Row | Binder | % max inhibition of shedding [1] [%] | EC50 of shedding inhibition [1] [µg/mL] | % max inhibition of shedding [2] [%] | Kd [4] [nM] | Kd [5] [nM] | Kd [7] [nM] | binding result [9] | binding result [10] | binding result [11] | binding result [12] | binding result [23] | binding result [24] | other results
1 | 13A9 (antibody, V domains shown, Mouse variable domains; constant regions differ by assay) VH: QVQLQQSGAELVRPGTSVKVSCKASGYAFTNYLIEWVKQRPGQGLEWIGAINPGSGATNYNEKFKDKARLTADKSSNTAYLQFSSLTSDDSAVYFCARFLGNYFDNWGQGATLTVSS VL: DIQMTQSPASLSASVGETVTITCRASGNIHSYLAWYQQKQGKSPQLLVYYAETLADGVPSRFSGRGSGTQYSLKINSLQPEDFGSYFCQQFWTTPYTFGGGTKVEIK | 66 | 0.166 | 47 | 0.97 | 1.55 | 0.5 | binds | binds | binds | binds |  |  | EC50 of shedding inhibition [2]: 0.489 µg/mL; % max inhibition of shedding [3]: 79%; EC50 of shedding inhibition [3]: 0.053 µg/mL; Kd [6]: 0.94 nM; binding result [8]: binds; EC50 of shedding inhibition [13]: 0.599 µg/mL; Max % Inhibition of shedding [13]: 56%; EC50 of shedding inhibition [14]: 0.794 µg/mL; Max % Inhibition of shedding [14]: 50%; EC50 of shedding inhibition [15]: 0.0349 µg/mL; Max % Inhibition of shedding [15]: 76%; EC50 of shedding inhibition [16]: 0.418 µg/mL; Max % Inhibition of shedding [16]: 66%; maximum inhibition of shedding [17]: ~60%; maximum inhibition of shedding [18]: ~40%; maximum inhibition of shedding [19]: 75%; binding result [20]: binds
2 | 13A9 Fab (Fab, V domains shown, Expressed in E. coli as chimera of murine variable and human constant domains; not shown: human IgG1 CH1 constant domain; human kappa CL constant domain) VH: QVQLQQSGAELVRPGTSVKVSCKASGYAFTNYLIEWVKQRPGQGLEWIGAINPGSGATNYNEKFKDKARLTADKSSNTAYLQFSSLTSDDSAVYFCARFLGNYFDNWGQGATLTVSS VL: DIQMTQSPASLSASVGETVTITCRASGNIHSYLAWYQQKQGKSPQLLVYYAETLADGVPSRFSGRGSGTQYSLKINSLQPEDFGSYFCQQFWTTPYTFGGGTKVEIK |  |  |  |  |  |  |  |  |  |  |  |  | binding result [21]: binds
3 | 6E1.1.12 Fab (Fab, V domains shown, Expressed in E. coli; the fraction with glutamine (not pyroglutamate) at the heavy chain N-terminus was crystallised; also called 6E1 Fab; not shown: human IgG1 CH1 constant domain; human kappa CL constant domain) VH: QGQMQQSGAELVKPGASVKLSCKTSGFTFSDNYISWLKQKPGQSLEWIAWIYAGTGGSSYNQKFRDKAQLTVDTSSRTAYMQLSSLTTEDSAIYYCARHDYYGTSGAWFAYWGRGTLVTVSA VL: DVLMTQTPLSLPVSLGDQASISCRSSQHIVHSNENTYLEWYLQKPGQSPKLLIYKVSNRFSGVPDRFSGSGSGTDFTLKISRVEAEDLGVYYCFQGSHVPWTFGGGTKVEIK |  |  |  |  |  |  |  |  |  |  |  |  | binding result [22]: binds
4 | 7A3.1.9 (antibody, V domains shown, Mouse hybridoma antibody; constant regions differ by assay) VH: QVQLKESGPGLVAPSQSLSITCTVSGFALTGSGVNWVRQPPGKGLEWLGMIWGDGNTDYNSALKSRLSISKDNSKSQIFLKMNSLQTDDTARYYCARGAHYGKRWYFDVWGAGTTVTVSS VL: DIQMTQTTSSLSASLGDRVTISCSASQGINNYLNWYQQKPDGTVKLLIYYTSSLPSGVPSRFSGSGSGTDYSLTISNLEPEDIATYYCQQYSKLPPTFGGGTKVEIK | 50 | 0.411 | < 10 | 16 | 8.7 | 22 | binds | binds | binds | binds | binds | binds | 
5 | 1E6.1.3 (antibody, V domains shown, Mouse hybridoma antibody; constant regions differ by assay) VH: QVQLKESGPGLVAPSQSLSITCTVSGFSLTGSGVNWVRQPPGQGLEWLGMIWGDGNTDYNSALKSRLSISKDNSKSQVFLKMNSLQTDDTARYYCARGAHYGKRWYFDVWGAGTTVTVSS VL: DIQMTQTTFSLSASLGDRVTISCSASQGINNYLNWYQQRPDGTVKLLIYYTSTLPSGVPSRFSGSGSGTDYSLTISNLEPEDIASYYCQQYSKLPPTFGGGTKVEIK | 46 | 0.681 | 20 | 18 | 37 | 24 | binds | binds | binds | binds | binds | binds | 
